Reference: patent US20260167720A1 (Amgen, published 2026)

What was measured:
Assay in all cases: cell-based or functional assay
[1] = target: T1, MSLN (Mesothelin) on HCT116 or GSU cells (UniProt Q13421 37-598, limits assumed)
[2] = target: T2, CDH3 (Cadherin-3, P-Cadherin) on HCT116 or GSU cells (UniProt P22223 108-829, limits assumed)
[3] = target: T1, MSLN (Mesothelin) on HCT116 or GSU cells; remark: listed apart in the source
[4] = target: T2, CDH3 (Cadherin-3, P-Cadherin) on HCT116 …; remark: listed apart in the source

Row | Binder | EC50 GSU KO CDH3 [pM]; TDCC, CDH3 knocked out, MSLN left [1] [pM] | EC50 GSU WT [pM]; TDCC, cells double positive for CDH3 and MSLN [1] [pM] | EC50 GSU KO MSLN [pM]; TDCC, MSLN knocked out, CDH3 left [2] [pM] | EC50 GSU WT [pM]; TDCC, cells double positive for CDH3 and MSLN [2] [pM] | EC50 HCT116 KO CDH3 [pM]; TDCC, CDH3 knocked out, MSLN left [3] [pM] | EC50 HCT116 WT [pM]; TDCC, cells double positive for CDH3 and MSLN [3] [pM] | EC50 HCT116 KO MSLN [pM]; TDCC, MSLN knocked out, CDH3 left [4] [pM] | EC50 HCT116 WT [pM]; TDCC, cells double positive for CDH3 and MSLN [4] [pM]
1 | MSLN-CDH3 T-cell engager molecule 3 (example to FIG. 2A) (bispecific antibody) chain 1: not shown chain 2: EVQLVESGGGLVQPGGSLKLSCAASGFTFNKYAMNWVRQAPGKGMEWVARIRSKYNNYATYYADAVKDRFTISRDDSKNTLYLQMNNLKTEDTAVYYCVRAGNFGSSYISYFAYWGQGTLVTVSSGGGGQGGGGQGGGGQQTVVTQEPSLTVSPGGTVTITCGSSTGAVTSGNYPNWIQKKPGQAPRGLIGGTKFLAPGTPARFSGSLEGGKAALTLSGVQPEDEAEYYCVLYYSNRWVFGSGTKLTVLGGGGQGGGGQGGGGQDKTHTCPPCPAPELLGGPSVFLFPPKPKDTLMISRTPEVTCVVVDVSHEDPEVKFNWYVDGVEVHNAKTKPCEEQYGSTYRCVSVLTVLHQDWLNGKEYKCKVSNKALPAPIEKTISKAKGQPREPQVYTLPPSRKEMTKNQVSLTCLVKGFYPSDIAVEWESNGQPENNYKTTPPVLKSDGSFFLYSKLTVDKSRWQQGNVFSCSVMHEALHNHYTQKSLSLSPGKGGGGQGGGGQGGGGQEVQLVESGGGLVQPGGSLKLSCAASGFTFNKYAMNWVRQAPGKGMEWVARIRSKYNNYATYYADAVKDRFTISRDDSKNTLYLQMNNLKTEDTAVYYCVRAGNFGSSYISYFAYWGQGTLVTVSSGGGGQGGGGQGGGGQQTVVTQEPSLTVSPGGTVTITCGSSTGAVTSGNYPNWIQKKPGQAPRGLIGGTKFLAPGTPARFSGSLEGGKAALTLSGVQPEDEAEYYCVLYYSNRWVFGSGTKLTVL | 7.5 | 0.073 | 55.3 | 0.073 | 3.19 | 0.005 | 0.38 | 0.005
2 | MSLN-CDH3 T-cell engager molecule 5 (example to FIG. 2D) (bispecific antibody, human IgG1, kappa, N297G) chain 1: not shown chain 2: EVQLVESGGGLVQPGGSLKLSCAASGFTFNKYAMNWVRQAPGKGMEWVARIRSKYNNYATYYADAVKDRFTISRDDSKNTLYLQMNNLKTEDTAVYYCVRAGNFGSSYISYFAYWGQGTLVTVSSGGGGQGGGGQGGGGQQTVVTQEPSLTVSPGGTVTITCGSSTGAVTSGNYPNWIQKKPGQAPRGLIGGTKFLAPGTPARFSGSLEGGKAALTLSGVQPEDEAEYYCVLYYSNRWVFGSGTKLTVLGGGGGDKTHTCPPCPAPELLGGPSVFLFPPKPKDTLMISRTPEVTCVVVDVSHEDPEVKFNWYVDGVEVHNAKTKPCEEQYGSTYRCVSVLTVLHQDWLNGKEYKCKVSNKALPAPIEKTISKAKGQPREPQVYTLPPSRKEMTKNQVSLTCLVKGFYPSDIAVEWESNGQPENNYKTTPPVLKSDGSFFLYSKLTVDKSRWQQGNVFSCSVMHEALHNHYTQKSLSLSPGKGGGGQGGGGQGGGGQQVQLQESGPGLVKPSETLSLTCTVSGGSISSSSYFWGWIRQPPGKCLEWIGNIYYSGSSNYNPSLKSRVTISVDTSKNQFSLKLSSVTAADTAVYYCARLPRGDRDAFDIWGQGTMVTVSSGGGGQGGGGQGGGGQEIVMTQSPSSLSASVGDRVTITCRASQGISNYLAWYQQKPGKVPKLLIYAASTLQSGVPSRFSGSGSGTDFTLTISSLQPEDFATYYCQQSYSTPFTFGCGTKVEIK chain 3: EIQMTQSPSSLSASVGDRVTITCRASQDISNYLNWYQQKPGKVPKLLIYYTSRLHSGVPSRFSGSGSGTDFTLTISSLQPEDVATYYCVQYAQFPLTFGCGTKVEIKRTVAAPSVFIFPPSDEQLKSGTASVVCLLNNFYPREAKVQWKVDNALQSGNSQESVTEQDSKDSTYSLESTLTLSKADYEKHKVYACEVTHQGLSSPVTKSFNRGEC | 10.5 | 0.128 | 175 | 0.128 | 8.07 | 0.039 | 2.25 | 0.039
3 | MSLN-CDH3 T-cell engager molecule 2 (heteroFc multichain) (bispecific antibody) chain 1: QVQLVQSGAEVKKPGASVKVSCKASGYTFTNYWMNWVRQAPGQCLEWMGNIAYGVAGTNYNQKFQGRVTMTVDTSSSTAYMELSRLRSDDTAVYYCATRYFYVMDYWGQGTLVTVSSGGGGQGGGGQGGGGQEIQMTQSPSSLSASVGDRVTITCRASQDISNYLNWYQQKPGKVPKLLIYYTSRLHSGVPSRFSGSGSGTDFTLTISSLQPEDVATYYCVQYAQFPLTFGCGTKVEIKSGGGGQEVQLVESGGGLVQPGGSLKLSCAASGFTFNKYAMNWVRQAPGKGMEWVARIRSKYNNYATYYADAVKDRFTISRDDSKNTLYLQMNNLKTEDTAVYYCVRAGNFGSSYISYFAYWGQGTLVTVSSGGGGQGGGGQGGGGQQTVVTQEPSLTVSPGGTVTITCGSSTGAVTSGNYPNWIQKKPGQAPRGLIGGTKFLAPGTPARFSGSLEGGKAALTLSGVQPEDEAEYYCVLYYSNRWVFGSGTKLTVLGGGGCPPCPAPELLGGPSVFLFPPKPKDTLMISRTPEVTCVVVDVSHEDPEVKFNWYVDGVEVHNAKTKPCEEQYGSTYRCVSVLTVLHQDWLNGKEYKCKVSNKALPAPIEKTISKAKGQPREPQVYTLPPSREEMTKNQVSLTCLVKGFYPSDIAVEWESNGQPENNYDTTPPVLDSDGSFFLYSDLTVDKSRWQQGNVFSCSVMHEALHNHYTQDSLSLSPGK chain 2: CPPCPAPELLGGPSVFLFPPKPKDTLMISRTPEVTCVVVDVSHEDPEVKFNWYVDGVEVHNAKTKPCEEQYGSTYRCVSVLTVLHQDWLNGKEYKCKVSNKALPAPIEKTISKAKGQPREPQVYTLPPSRKEMTKNQVSLTCLVKGFYPSDIAVEWESNGQPENNYKTTPPVLKSDGSFFLYSKLTVDKSRWQQGNVFSCSVMHEALHNHYTQKSLSLSPGKGGGGQVQLQESGPGLVKPSETLSLTCTVSGGSISSSSYFWGWIRQPPGKCLEWIGNIYYSGSSNYNPSLKSRVTISVDTSKNQFSLKLSSVTAADTAVYYCARLPRGDRDAFDIWGQGTMVTVSSGGGGQGGGGQGGGGQEIVMTQSPSSLSASVGDRVTITCRASQGISNYLAWYQQKPGKVPKLLIYAASTLQSGVPSRFSGSGSGTDFTLTISSLQPEDFATYYCQQSYSTPFTFGCGTKVEIKSGGGGQEVQLVESGGGLVQPGGSLKLSCAASGFTFNKYAMNWVRQAPGKGMEWVARIRSKYNNYATYYADAVKDRFTISRDDSKNTLYLQMNNLKTEDTAVYYCVRAGNFGSSYISYFAYWGQGTLVTVSSGGGGQGGGGQGGGGQQTVVTQEPSLTVSPGGTVTITCGSSTGAVTSGNYPNWIQKKPGQAPRGLIGGTKFLAPGTPARFSGSLEGGKAALTLSGVQPEDEAEYYCVLYYSNRWVFGSGTKLTVL | 2.5 | 0.039 | 349 | 0.039 | 3.48 | 0.013 | 1.77 | 0.013
4 | MSLN-CDH3 T-cell engager molecule 4 (example to FIG. 2B) (bispecific antibody) chain 1: not shown chain 2: EVQLVESGGGLVQPGGSLKLSCAASGFTFNKYAMNWVRQAPGKGMEWVARIRSKYNNYATYYADAVKDRFTISRDDSKNTLYLQMNNLKTEDTAVYYCVRAGNFGSSYISYFAYWGQGTLVTVSSGGGGQGGGGQGGGGQQTVVTQEPSLTVSPGGTVTITCGSSTGAVTSGNYPNWIQKKPGQAPRGLIGGTKFLAPGTPARFSGSLEGGKAALTLSGVQPEDEAEYYCVLYYSNRWVFGSGTKLTVLGGGGQGGGGQGGGGQDKTHTCPPCPAPELLGGPSVFLFPPKPKDTLMISRTPEVTCVVVDVSHEDPEVKFNWYVDGVEVHNAKTKPCEEQYGSTYRCVSVLTVLHQDWLNGKEYKCKVSNKALPAPIEKTISKAKGQPREPQVYTLPPSRKEMTKNQVSLTCLVKGFYPSDIAVEWESNGQPENNYKTTPPVLKSDGSFFLYSKLTVDKSRWQQGNVFSCSVMHEALHNHYTQKSLSLSPGKGGGGQGGGGQGGGGQQVQLQESGPGLVKPSETLSLTCTVSGGSISSSSYFWGWIRQPPGKCLEWIGNIYYSGSSNYNPSLKSRVTISVDTSKNQFSLKLSSVTAADTAVYYCARLPRGDRDAFDIWGQGTMVTVSSGGGGQGGGGQGGGGQEIVMTQSPSSLSASVGDRVTITCRASQGISNYLAWYQQKPGKVPKLLIYAASTLQSGVPSRFSGSGSGTDFTLTISSLQPEDFATYYCQQSYSTPFTFGCGTKVEIK | 2.89 | 0.098 | 36.8 | 0.098 | 3.5 | 0.027 | 0.62 | 0.027
